This data set can be described thus: Protein yield of PodA variants purified from inclusion bodies of overexpression culture. To be noted: purified from inclusion bodies, per L of E. coli overexpression culture. Here is the method: Protein overproduction and purification of soluble and inclusion body fractions. Plasmids coding for proteins of interest were transformed into E. coli BL21 […]. […]. Cultures were grown at 37° C. with shaking to an optical density of 0.4 (OD600 nm) and plasmid expression was induced with IPTG (50 μM) and shaken overnight at 16° C. Cells were harvested by centrifugation at 5,000×g for 10 min in a Beckman Coulter Avanti J-20 XOI refrigerated centrifuge using a JLA-8.1000 rotor at 4° C. Cell pellets were stored at −80° C. until used.
For purification of PodA from inclusion bodies, the pellets remaining following lysis and centrifugation at 40,000×g were resuspended in 20 mL of detergent buffer [50 mM HEPES (pH 7.5) and 1% Triton-X (v/v)] using a Bio-gen PRO200 cell homogenizer (PRO Scientific). Sample was spun for 15 min at 40,000×g at 4° C. in a Beckman Coulter Avanti centrifuge with a JA-25.50 rotor. Supernatant was discarded and the remaining cell pellet was resuspended in 5 mL of buffer [50 mM HEPES (pH 7.5), 500 mM NaCl] using a cell homogenizer, supplemented with lysozyme (200 μg mL^−1), and incubated for 10 min. Volume was increased to 20 mL with HEPES (50 mM, pH 7) and sample was spun for 40,000×g at 4° C. for 15 min. Supernatant was discarded and pellet was homogenized in 10 mL of denaturing buffer 50 mM HEPES (pH 7.5), 500 mM NaCl, and 8M urea) and incubating rocking overnight. The sample was spun at for 40,000×g at 25° C. for 30 min and supernatant was incubated with 1 mL HisPur Ni-NTA resin (Thermo Fisher Scientific) on a rocking platform for 10 min. Beads were allowed to settle without shaking, supernatant was discarded, and resin was pipetted into glass gravity columns. Resin was washed with 15 mL of denaturing buffer, followed by an elution with denaturing buffer supplemented with imidazole (500 mM). Fractions were analyzed by SDS-PAGE and those containing protein were combined into SnakeSkin 3.5 K MWCO dialysis tubing (Thermo Fisher Scientific). Urea was slowly dialyzed out in HEPES (50 mM, pH 7.5) and NaCl (500 mM) by lowing urea concentrations by 1 M increments. Each step was dialyzed at RT for 30 min. Protein was dialyzed in HEPES (50 mM, pH 7.5), NaCl (500 mM), and imidazole (20 mM) overnight at 4° C. The following day, protein was cleaved for 3 h at 25° C. with TEV protease (1:50 mg:mg ratio of TEV to PodA). The sample was applied to a HisPur gravity column and cleaved protein in the flow thru was confirmed by SDS-PAGE. Cleaved PodA protein was then dialyzed for storage for 3 h at 4° C. in HEPES (50 mM pH 7.5), NaCl (250 mM) and finally in HEPES (50 mM, pH 7.5), NaCl (100 mM), and glycerol (20%, v/v). Protein concentration was established on a NanoDrop™ using the extinction coefficient and MW of each protein. Protein was drop frozen in LN2 and stored at −80° C. until use.

B1: PodA10: Designed PodA41-162 variant: A53N, I73T, A87V, M99V, A129T; SEQ ID NO: 4 (protein)
chain: MVTMTLDVKNDQVNKHDFGKPGMDVGDMDIFSDTLSVDGKQVGYDGGVCFFTNVTPDNPVTYCELTIHLDAGEIFARSLTPATLAPFTMTITGGTGEYANSKGELTVSGVATPDEKYELKLTK
Molecule B1 gave a Yield of 5.92 mg/L^−1.

The values are drawn from patent US12427188B2, “Pyocyanine demethylases and related phenazine degrading agents compositions, methods and systems for interfering with viability of bacteria” (priority 2020, dated 2025).
